Consider 5 molecules from publication doi:10.1101/2024.09.28.615595.

Substitutions are numbered along the chain they refer to. Like-named read-outs stand apart in the source and are kept apart here.

Common to all, as to assay: EMSA
(In general: In EMSA bound probe runs differently from free probe, usually more slowly.)

Data set [1] deals with T1, CsrA (Escherichia coli, UniProt P69913 1-61).
In data set [2] the target is T1, CsrA. This is another data set of the same source.
For data set [3], the target named is T1, CsrA. The source holds these as a separate data set.

T1 sequence (P69913 whole entry): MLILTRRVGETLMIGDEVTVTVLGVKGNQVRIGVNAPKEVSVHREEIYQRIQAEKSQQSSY

B1: uxuB CDS mutant (DOWNSTR mut) (ssRNA)
RNA: GGGAUAAUGCGCUUUCUUUAGCCGUUAAUAUCCACCGGCAUGGCUGCGCGCCGUGCCGGUUCCUUCUUCCUUGCCGUCACUCUUUGAAGACGGAUUCUGGAGUUUACGAUGACUACUAUUGUUGACAGCAAUCUGCCGGUUGCCCGCCCGUCAUUUGAUCAUUCUCGUCUGCAAUCACGCAUUGUGCAUCUAGGUUGCGGGGCGUUUCGCAUGC
B1: the “apparent K (half saturation)” value in the data set with CsrA [1] was ~158 nM.

B2: uxuB no GGAs mutant (ssRNA)
RNA: B1 RNA with C69G, C74G, G93C, G100C
As to B2, in the data set with CsrA [1], the “apparent K (half saturation)” value was ~193 nM.

B3: uxuB CDS truncation wild type (ssRNA)
RNA: GGGAUAAUAUGACUACUAUUGUUGACAGCAAUCUGCCGGUUGCCCGCCCGUCAUGGGAUCAUUCUCGUCUGGAAUCACGCAUUGUGCAUCUCGGUUGCGGGGCGUUUC
On to B3, for which, in the data set with CsrA [2], the Kd is ~164 nM.

B4: uxuB 5' UTR truncation mutant (ssRNA)
RNA: GGGAUAAUGCGCUUUCUUUAGCCGUUAAUAUCCACCGGCAUGGCUGCGCGCCGUGCCGGUUCCUUCUUGCUUGGCGUCACUCUUUGAAGACGCAUUCUGCAGUUUACGA
Regarding B4, the binding result with CsrA [3] is “no binding”.

B5: uxuB leader wild type (ssRNA)
RNA: GGGAUAAUGCGCUUUCUUUAGCCGUUAAUAUCCACCGGCAUGGCUGCGCGCCGUGCCGGUUCCUUCUUCCUUGCCGUCACUCUUUGAAGACGGAUUCUGGAGUUUACGAUGACUACUAUUGUUGACAGCAAUCUGCCGGUUGCCCGCCCGUCAUGGGAUCAUUCUCGUCUGGAAUCACGCAUUGUGCAUCUCGGUUGCGGGGCGUUUC
On to B5, for which the Kd with CsrA [1] is ~83.2 nM.

A word on the Kd: it is the concentration at which binding is half-saturated. Read a low Kd as tighter binding.
